B1: ZNF207 (parent)
chain: CHICHKKLYTGPGLAIHCMQVHKE
B2: NEK8 (parent)
chain: YTFGSNQHGQLGTNTRRGSRAPCK
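Note: lentivirally expressed fusions sorted by FACS into six bins by GFP to DsRed ratio, PSI derived from sequencing read proportions per bin multiplied by bin number.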

Variants of B1 are the subject of one data set. Put plainly: protein stability index of a GFP-peptide fusion (GPS, HEK-293T) (PSI 1-6); higher = more stable. Particulars: c terminus: a fixed tail appended.
Regarding CHICHKKLYTGPGLAIHCMQVHKM, the protein stability index was found to be 2.11.
For the variant CHICHKKLYTGPGLAIHCMQVHDE, the protein stability index is 3.87.
With CHICHKKLYTGPGLAIHCMQVHTE, the protein stability index stood at 2.61.
Still for that read-out and setting: as for CHICHKKLYTGPGLAIHCMQVHWE, the figure is 2.25; as for CHICHKKLYTGPGLAIHCMQVHEE, 3.95; as for CHICHKKLYTGPGLAIHCMQVHHE, 3.48.
On the same count and under the same terms, as for CHICHKKLYTGPGLAIHCMQVHME, the figure is 3.49.
As for CHICHKKLYTGPGLAIHCMQVHVE, the protein stability index is 3.19.
Same read-out and setting: as for CHICHKKLYTGPGLAIHCMQVHGE, the figure is 3.68; as for CHICHKKLYTGPGLAIHCMQVHRE, 3.13.
With CHICHKKLYTGPGLAIHCMQVHQE, the protein stability index came out at 3.52.
Same read-out and setting: as for CHICHKKLYTGPGLAIHCMQVHPE, the figure is 3.04; as for CHICHKKLYTGPGLAIHCMQVHCE, 3.06; as for CHICHKKLYTGPGLAIHCMQVHSE, 3.35.
As to CHICHKKLYTGPGLAIHCMQVHFE, the protein stability index stood at 2.04.
Same read-out and setting: as for CHICHKKLYTGPGLAIHCMQVHIE, the figure is 2.21; as for CHICHKKLYTGPGLAIHCMQVHYE, 2.19; as for CHICHKKLYTGPGLAIHCMQVHNE, 4.12.
On the same count and under the same terms, as for CHICHKKLYTGPGLAIHCMQVHAE, the figure is 3.14.
The same measure, in the same setting: as for CHICHKKLYTGPGLAIHCMQVHLE, the figure is 2.38; as for CHICHKKLYTGPGLAIHYMQVHKE, 2.02; as for CHICHKKLYTGPGLAIHTMQVHKE, 3.02.
For the variant CHICHKKLYTGPGLAIHLMQVHKE, the protein stability index was found to be 3.69.
Turning to CHICHKKLYTGPGLAIHIMQVHKE, the protein stability index was determined as 2.06.
Turning to CHICHKKLYTGPGLAIHHMQVHKE, the protein stability index turned out to be 2.56.
With CHICHKKLYTGPGLAIHQMQVHKE, the protein stability index is 2.99.
Consider CHICHKKLYTGPGLAIHNMQVHKE, for which the protein stability index stood at 2.59.
The same measure, in the same setting: as for CHICHKKLYTGPGLAIHSMQVHKE, the figure is 3.01; as for CHICHKKLYTGPGLAIHPMQVHKE, 2.47.
Same read-out and setting: as for CHICHKKLYTGPGLAIHVMQVHKE, the figure is 2.8; as for CHICHKKLYTGPGLAIHWMQVHKE, 1.93; as for CHICHKKLYTGPGLAIHMMQVHKE, 2.47.
The same measure, in the same setting: as for CHICHKKLYTGPGLAIHKMQVHKE, the figure is 3.09.
Turning to CHICHKKLYTGPGLAIHRMQVHKE, the protein stability index was 2.4.

A further data set covers variants of B2. The data set is described as above. Particulars: c terminus: a fixed tail appended.
Take YVFGSNQHGQLGTNTRRGSRAPCK: the protein stability index is 2.36.
Same read-out and setting: as for YEFGSNQHGQLGTNTRRGSRAPCK, the figure is 4.78.
In the case of YDFGSNQHGQLGTNTRRGSRAPCK, the protein stability index turned out to be 4.43.
Still for that read-out and setting: as for YRFGSNQHGQLGTNTRRGSRAPCK, the figure is 4.75.
On the same count and under the same terms, as for YIFGSNQHGQLGTNTRRGSRAPCK, the figure is 2.44.
For YSFGSNQHGQLGTNTRRGSRAPCK, the protein stability index was 4.31.
For the variant YWFGSNQHGQLGTNTRRGSRAPCK, the protein stability index was 3.32.
On the same count and under the same terms, as for YFFGSNQHGQLGTNTRRGSRAPCK, the figure is 3.25; as for YYFGSNQHGQLGTNTRRGSRAPCK, 4.24; as for YGFGSNQHGQLGTNTRRGSRAPCK, 4.33.
As to YCFGSNQHGQLGTNTRRGSRAPCK, the protein stability index is 2.88.
Turning to YAFGSNQHGQLGTNTRRGSRAPCK, the protein stability index was 2.77.
As to YHFGSNQHGQLGTNTRRGSRAPCK, the protein stability index came out at 1.95.
Still for that read-out and setting: as for YMFGSNQHGQLGTNTRRGSRAPCK, the figure is 4.5.
On the same count and under the same terms, as for YPFGSNQHGQLGTNTRRGSRAPCK, the figure is 4.18; as for YLFGSNQHGQLGTNTRRGSRAPCK, 3.61.
Still for that read-out and setting: as for YQFGSNQHGQLGTNTRRGSRAPCK, the figure is 3.5; as for YKFGSNQHGQLGTNTRRGSRAPCK, 3.83; as for YNFGSNQHGQLGTNTRRGSRAPCK, 4.61.
With TTFGSNQHGQLGTNTRRGSRAPCK, the protein stability index was 4.49.
Turning to MTFGSNQHGQLGTNTRRGSRAPCK, the protein stability index was determined as 4.31.
The same measure, in the same setting: as for NTFGSNQHGQLGTNTRRGSRAPCK, the figure is 5.24; as for QTFGSNQHGQLGTNTRRGSRAPCK, 4.99.
Same read-out and setting: as for KTFGSNQHGQLGTNTRRGSRAPCK, the figure is 4.79.
Still for that read-out and setting: as for HTFGSNQHGQLGTNTRRGSRAPCK, the figure is 4.54; as for CTFGSNQHGQLGTNTRRGSRAPCK, 4.11.
As for ITFGSNQHGQLGTNTRRGSRAPCK, the protein stability index was determined as 4.34.
On the same count and under the same terms, as for ATFGSNQHGQLGTNTRRGSRAPCK, the figure is 4.81; as for ETFGSNQHGQLGTNTRRGSRAPCK, 4.47; as for PTFGSNQHGQLGTNTRRGSRAPCK, 4.52.
Still for that read-out and setting: as for DTFGSNQHGQLGTNTRRGSRAPCK, the figure is 4.96; as for FTFGSNQHGQLGTNTRRGSRAPCK, 3.66; as for GTFGSNQHGQLGTNTRRGSRAPCK, 5.09.
On the same count and under the same terms, as for VTFGSNQHGQLGTNTRRGSRAPCK, the figure is 4.6; as for RTFGSNQHGQLGTNTRRGSRAPCK, 4.64.
Take LTFGSNQHGQLGTNTRRGSRAPCK: the protein stability index is 4.13.
Consider STFGSNQHGQLGTNTRRGSRAPCK, for which the protein stability index was found to be 4.89.
The same measure, in the same setting: as for WTFGSNQHGQLGTNTRRGSRAPCK, the figure is 4.28; as for YTFDSNQHGQLGTNTRRGSRAPCK, 4.39; as for YTFCSNQHGQLGTNTRRGSRAPCK, 2.91.
As to YTFASNQHGQLGTNTRRGSRAPCK, the protein stability index worked out at 3.44.
For the variant YTYGSNQHGQLGTNTRRGSRAPCK, the protein stability index came to 3.54.
On the same count and under the same terms, as for YTMGSNQHGQLGTNTRRGSRAPCK, the figure is 4.13.
Same read-out and setting: as for YTCGSNQHGQLGTNTRRGSRAPCK, the figure is 3.58; as for YTHGSNQHGQLGTNTRRGSRAPCK, 3.94.
With YTVGSNQHGQLGTNTRRGSRAPCK, the protein stability index amounted to 3.98.
On the same count and under the same terms, as for YTTGSNQHGQLGTNTRRGSRAPCK, the figure is 3.77; as for YTSGSNQHGQLGTNTRRGSRAPCK, 3.2.
Same read-out and setting: as for YTDGSNQHGQLGTNTRRGSRAPCK, the figure is 4.11.
Still for that read-out and setting: as for YTKGSNQHGQLGTNTRRGSRAPCK, the figure is 4.32.
Regarding YTIGSNQHGQLGTNTRRGSRAPCK, the protein stability index turned out to be 3.89.
On the same count and under the same terms, as for YTRGSNQHGQLGTNTRRGSRAPCK, the figure is 3.92.
Still for that read-out and setting: as for YTQGSNQHGQLGTNTRRGSRAPCK, the figure is 3.69; as for YTWGSNQHGQLGTNTRRGSRAPCK, 2.06.
On the same count and under the same terms, as for YTGGSNQHGQLGTNTRRGSRAPCK, the figure is 2.29; as for YTPGSNQHGQLGTNTRRGSRAPCK, 2.02; as for YTLGSNQHGQLGTNTRRGSRAPCK, 3.99.
For YTAGSNQHGQLGTNTRRGSRAPCK, the protein stability index was 3.31.
Regarding YTEGSNQHGQLGTNTRRGSRAPCK, the protein stability index worked out at 4.32.
Take YTNGSNQHGQLGTNTRRGSRAPCK: the protein stability index worked out at 3.95.

The record behind these values is the supplement of paper PMC10567573.
